Source: patent publication US20140099312A1 (Regeneron, published 2014)

Target: hPCSK9(D374Y)-mmh (human, UniProt Q8NBP7 31-692)
Assay: cell-based or functional assay

IC50, LDL uptake in HepG2 cells: 1.1 nM
B1: H1M300N (antibody, V domains shown)
VH: EMQLVESGGGLVQPGGSLRLSCAASGFTFSSHWMKWVRQAPGKGLEWVANINQDGSEKYYVDSVKGRFTISRDNAKNSLFLQMNSLRAEDTAVYYCARDIVLMVYDMDYYYYGMDVWGQGTTVTVSS
VL: not shown
